Results reported in US20160347808A1 (IMMATICS BIOTECHNOLOGIES, published 2016).

Target: T1, HLA-A*02:01 (peptide-receptive MHC class I monomer from UV-ligand exchange) (human)
T1 construct: Monomers were captured on streptavidin-coated plates
Assay: UV-exchange ELISA (anti-b2m); exchange yield grade: + >=10%, ++ >=20%, +++ >=50%, ++++ >=75%
In short: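 Peptide–MHC complexes formed by UV-ligand exchange, cleaving a UV-sensitive peptide so the test peptide can bind. Exchange yield measured by ELISA: complexes captured on streptavidin-coated wells, diluted 100-fold, detected with HRP anti-β2m (1 h, 37 °C) and TMB at 450 nm, against refolded HLA-A*02:01/MLA-001 standards (15-500 ng/ml).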

Binder | peptide exchange yield [%]
KLDIKVETV [peptide KLDIKVETV (SEQ ID NO 88)] | ≥ 75
ILHDINSDGVL [peptide ILHDINSDGVL (SEQ ID NO 85)] | 20 to 50
ALMLQGVDLL [peptide ALMLQGVDLL (SEQ ID NO 8)] | 50 to 75
GLSEGHTFQV [peptide GLSEGHTFQV (SEQ ID NO 101)] | 50 to 75
AMNGKSFSV [peptide AMNGKSFSV (SEQ ID NO 98)] | 20 to 50
ALWWGVVTV [peptide ALWWGVVTV (SEQ ID NO 97)] | 20 to 50
KILVSLIEV [peptide KILVSLIEV (SEQ ID NO 102)] | 50 to 75
AILDAHIEV [peptide AILDAHIEV (SEQ ID NO 95)] | ≥ 75
GLLKPGLNVVL [peptide GLLKPGLNVVL (SEQ ID NO 90)] | 50 to 75
FLFGYPKRL [peptide FLFGYPKRL (SEQ ID NO 103)] | 20 to 50
ILDDHLSRV [peptide ILDDHLSRV (SEQ ID NO 9)] | 20 to 50

Results, then the binder that gave them:

peptide exchange yield [%] | Binder
20 to 50 | KLYSRLVYV [peptide KLYSRLVYV (SEQ ID NO 96)]
50 to 75 | KSMDIVLTV [peptide KSMDIVLTV (SEQ ID NO 94)]
50 to 75 | WIDDTSAFV [peptide WIDDTSAFV (SEQ ID NO 92)]
50 to 75 | SLDDFLATA [peptide SLDDFLATA (SEQ ID NO 100)]
20 to 50 | KVFPGKISV [peptide KVFPGKISV (SEQ ID NO 86)]
50 to 75 | KLLEVDLDTV [peptide KLLEVDLDTV (SEQ ID NO 99)]
≥ 75 | SLQELRLLL [peptide SLQELRLLL (SEQ ID NO 93)]
50 to 75 | SLIEYEFRV [peptide SLIEYEFRV (SEQ ID NO 89)]
50 to 75 | SMVEDITGLRL [peptide SMVEDITGLRL (SEQ ID NO 84)]
50 to 75 | LLFDAPDLRL [peptide LLFDAPDLRL (SEQ ID NO 87)]
50 to 75 | LTIEDGIFEV [peptide LTIEDGIFEV (SEQ ID NO 83)]
50 to 75 | TVDVATPSV [peptide TVDVATPSV (SEQ ID NO 91)]
